System: BG02 hESCs
Test: QRT-PCR of mesendoderm, definitive endoderm and other lineage transcripts in hESCs differentiated in defined media
Type: cell-based, human
Conditions: FIG. 7; Wnt3a 25 ng/ml; over 72 hours of treatment
Protocol: For DE differentiation, media was replaced after ˜18-24 hours with differentiation media (a), in the presence or absence of Wnt3a (25 ng/ml). RNA was prepared from cultures at times indicated and subject to QRT-PCR analysis of T, MixL1, GSC, Sox17 and CXCR4 transcripts. QRT-PCR reactions are normalized to GAPDH control. ‘Assays on demand’ QRT-PCR reactions were from Applied Biosystems and have been described previously (McLean et al., 2007).
BG02 hESCs were plated in defined conditions (a) and after 18 hours media was switched to differentiation media (a) with Wnt3a (25 ng/ml) for the first 24 hours. The time course proceeded for 96 hours. Untreated hESCs (96 hours) or cells in differentiation media (a) were collected at 24, 48, 72 and 96 hours for QRT-PCR analysis. ‘Assays on demand’ QRT-PCR reactions were from Applied Biosystems and have been described previously (McLean et al., 2007).
Culture of hESCs: Methods: hESCs are preferably grown in MEF-CM (details from previous filings) or defined media using Matrigel (1:200 dilution) as a growth matrix (for example). Cells are passaged manually or by using enzymatic methods such as collagenase or accutase and typically plated at 1×10^6 per 60 mm dish for 12-24 hours in hESC media then media is changes to promote DE differentiation (see ‘Differentiation media’ below). During differentiation, ‘differentiation media’ is replaced every day. […]

B1: Wnt3a: growth factor Wnt3a (25 ng/ml, R&D Systems) (protein, UniProt P56704 19-352, looked up)
Protein Wnt-3a: SYPIWWSLAVGPQYSSLGSQPILCASIPGLVPKQLRFCRNYVEIMPSVAEGIKIGIQECQHQFRGRRWNCTTVHDSLAIFGPVLDKATRESAFVHAIASAGVAFAVTRSCAEGTAAICGCSSRHQGSPGKGWKWGGCSEDIEFGGMVSREFADARENRPDARSAMNRHNNEAGRQAIASHMHLKCKCHGLSGSCEVKTCWWSQPDFRAIGDFLKDKYDSASEMVVEKHRESRGWVETLRPRYTYFKVPTERDLVYYEASPNFCEPNPETGSFGTRDRTCNVSSHGIDGCDLLCCGRGHNARAERRREKCRCVFHWCCYVSCQECTRVYDVHTCK
- amount of CXCR4 mRNA produced, presence versus absence of Wnt3a: improves the amount of CXCR4 mRNA produced

— patent US20090298169A1, “Pancreatic and Liver Endoderm Cells and Tissue by Differentiation of Definitive Endoderm Cells Obtained from Human Embryonic Stems” (The University of Georgia Research Foundation, priority 2006, published 2009)
